The values that follow come from publication PMC6335053.

The target in the assay is Human full-length GIRK4 (purified) (human) (UniProt P48544).
Chain of UniProt P48544 (P48544 whole entry): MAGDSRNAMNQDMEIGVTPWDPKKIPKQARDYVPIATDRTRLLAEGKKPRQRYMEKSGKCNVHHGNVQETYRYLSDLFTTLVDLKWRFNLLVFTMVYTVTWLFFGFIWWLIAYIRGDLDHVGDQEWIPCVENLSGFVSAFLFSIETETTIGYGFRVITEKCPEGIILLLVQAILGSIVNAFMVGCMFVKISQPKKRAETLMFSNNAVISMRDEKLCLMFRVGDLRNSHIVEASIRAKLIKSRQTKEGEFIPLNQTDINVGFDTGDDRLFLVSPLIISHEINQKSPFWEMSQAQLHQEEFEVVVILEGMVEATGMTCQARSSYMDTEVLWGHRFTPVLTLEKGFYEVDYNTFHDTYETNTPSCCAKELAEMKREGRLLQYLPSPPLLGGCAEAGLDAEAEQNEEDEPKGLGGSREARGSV

In turn, “Human lipid-anchored Gβ1γ2 (from UniProt P62873 1-340; P59768 1-71) (complex)” gave an inward GIRK current in planar lipid bilayers: increase on fusing further Gβγ vesicles to a bilayer holding GIRK and Gβγ at 1:0.1 (wt:wt), with 32 µM C8-PIP2 and 32 mM Na+ of 5 fold.
